Measured values from patent US20240327505A1.

Columns and labels:
Assay in all cases: cell-based or functional assay
[1] = target: SARS-CoV-2 "Alpha" UK B.1.1.7 full-length Spike protein on pseudovirus (SARS-CoV-2) (UniProt P0DTC2)
[2] = target: SARS-CoV-2 "Beta" SA B.1.351 full-length Spike protein on pseudovirus (SARS-CoV-2) (UniProt P0DTC2)
[3] = target: SARS-CoV-2 "Delta" B.1.617.2 full-length Spike protein on pseudovirus (SARS-CoV-2) (UniProt P0DTC2)
[4] = target: SARS-CoV-2 "Delta-plus" B.1.617.2.1 full-length Spike protein on pseudovirus (SARS-CoV-2) (UniProt P0DTC2)
[5] = target: SARS-CoV-2 "Epsilon" B.1.427/9 full-length Spike protein on pseudovirus (SARS-CoV-2) (UniProt P0DTC2)
[6] = target: SARS-CoV-2 "Gamma" Brazil P.1.B.1.1.28 full-length Spike protein on pseudovirus (SARS-CoV-2) (UniProt P0DTC2)

Substance	Pseudovirus Neturalization [1] [µg/mL]	Pseudovirus Neturalization [2] [µg/mL]	Pseudovirus Neturalization [3] [µg/mL]	Pseudovirus Neturalization [4] [µg/mL]	Pseudovirus Neturalization [5] [µg/mL]	Pseudovirus Neturalization [6] [µg/mL]
Anti-Nucleocapsid (Neg Control) (antibody)	> 50	> 50	> 50	> 50	> 50	> 50
CA-1 (AB-009265) (antibody)	0.209	> 50	2.19	41.5	0.33	> 50
CB-6 (AB-009264) (antibody)	0.417	> 50	0.004	> 50	0.009	> 50
COVA1-21 (AB-010159) (antibody)	> 50	> 50	> 50	> 50	> 50	> 50
CR3022 (AB-009073) (antibody)	> 50	> 50	> 50	> 50	> 50	> 50
LY-CoV555 | Bamlanivimab (AB-010160) (antibody)	0.0012	> 50	19.3	6.93	7.82	> 50
REGN10933 | Casirivimab (AB-010156) (antibody)		1.09	0.001	0.001	0.001	0.666
REGN10987 | Imdevimab (AB-010157) (antibody)			0.001	0.001	0.001	
